Target: the molecule itself
Assay: electrophoretic mobility shift assay, in vitro translated protein on labeled Rev-DR2 oligonucleotide
Description: The electrophoretic gel shift studies were carried out by using the indicated end-labeled oligonucleotides, in the presence of the murine PPAR GAMMA receptor, murine RXR ALPHA receptor, human REV-ERB ALPHA receptor produced by reticulocyte lysate, or non-programmed lysates (lysate). Binding competition experiments were performed by adding a 0, 10 or 100-fold excess of unlabeled Rev-DR2 oligonucleotide.
The pSG5-mPPAR-gamma, pSG5-mRXR-alpha and pSG5-hRev-erb alpha plasmids were transcribed in vitro with T7 polymerase and translated with the rabbit reticulocyte lysate system (Promega, Madison, Wis., USA). Gel shift experiments with REV-ERB ALPHA, PPAR GAMMA and/or RXR ALPHA proteins were carried out as previously described (Gervois, P. et al., Molecular Endocrinology 1999, 13(3): 400-409; Vu-Dac, N. et al., J. Biol. Chem. 1994, 269(49): 31012-31018). For the competition experiments, increasing quantities of the indicated unlabeled probe were added immediately before adding the labeled oligonucleotide. The complexes were resolved in 5% polyacrylamide gels using […] buffer (90 mM borate, 2.5 mM EDTA, pH 8.3) at room temperature. Gels were dried and exposed overnight at −70° C. on Rayon-X film (XOMAT-AR, Eastman Kodak, Rochester, N.Y., USA).
Lastly, binding of the PPAR GAMMA receptor to the Rev-DR2 site was studied. […]

B1: human REV-ERB ALPHA receptor (receptor)
chain: MTTLDSNNNTGGVITYIGSSGSSPSRTSPESLYSDNSNGSFQSLTQGCPTYFPPSPTGSLTQDPARSFGSIPPSLSDDGSPSSSSSSSSSSSSFYNGSPPGSLQVAMEDSSRVSPSKSTSNITKLNGMVLLCKVCGDVASGFHYGVHACEGCKGFFRRSIQQNIQYKRCLKNENCSIVRINRNRCQQCRFKKCLSVGMSRDAVRFGRIPKREKQRMLAEMQSAMNLANNQLSSQCPLETSPTQHPTPGPMGPSPPPAPVPSPLVGFSQFPQQLTPPRSPSPEPTVEDVISQVARAHREIFTYAHDKLGSSPGNFNANHASGSPPATTPHRWENQGCPPAPNDNNTLAAQRHNEALNGLRQAPSSYPPTWPPGPAHHSCHQSNSNGHRLCPTHVYAAPEGKAPANSPRQGNSKNVLLACPMNMYPHGRSGRTVQEIWEDFSMSFTPAVREVVEFAKHIPGFRDLSQHDQVTLLKAGTFEVLMVRFASLFNVKDQTVMFLSRTTYSLQELGAMGMGDLLSAMFDFSEKLNSLALTEEELGLFTAVVLVSADRSGMENSASVEQLQETLLRALRALVLKNRPLETSRFTKLLLKLPDLRTLNNMHSEKLLSFRVDAQ
notes: also called hRev-erb alpha
  binding result: binds
